Test results as given in patent US20140087995A1 (published 2014).
Where two headings read alike, the source gives them in different places. Numbered stars: 1 amine (or outer) side, 2 acyl side, 3 side chain; on linkers, the order of the positions; unused ones are H or OH. Bridge positions count the residues as written; N and C are the ends. Side chains are listed from the residue outwards. Ends that are not written are not given here. * marks the point of attachment. C20 diacid = O=C(O)CCCCCCCCCCCCCCCCCCC(=O)*; γGlu = O=C(O)[C@H](CCC(=O)[*:2])N[*:1]; AEEA = NCCOCCOCC(=O)O

T1: rat calcitonin receptor (rat, UniProt P32214 25-516)
T1 construct: whole, on cells; Membranes of BHK tk'ts 13 cells transiently transfected with the rat calcitonin receptor; also called rCTR; rat calcitonin (a) receptor
T1 sequence (looked up): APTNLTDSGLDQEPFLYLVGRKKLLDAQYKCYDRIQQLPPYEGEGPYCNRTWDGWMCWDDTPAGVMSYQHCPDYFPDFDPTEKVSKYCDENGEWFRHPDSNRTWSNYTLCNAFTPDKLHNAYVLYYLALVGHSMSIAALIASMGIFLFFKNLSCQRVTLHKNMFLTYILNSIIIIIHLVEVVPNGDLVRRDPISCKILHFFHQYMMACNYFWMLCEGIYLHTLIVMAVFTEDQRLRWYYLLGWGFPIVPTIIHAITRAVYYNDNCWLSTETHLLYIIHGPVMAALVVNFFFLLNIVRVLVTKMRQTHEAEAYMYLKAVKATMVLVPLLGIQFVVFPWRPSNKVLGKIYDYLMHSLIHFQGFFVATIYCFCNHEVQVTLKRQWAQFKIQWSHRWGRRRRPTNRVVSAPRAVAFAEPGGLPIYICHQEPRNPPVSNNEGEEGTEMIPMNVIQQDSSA

T2: rat amylin receptor (rat calcitonin receptor + rat RAMP 3) (rat, UniProt P32214 25-516; Q9JJ73 23-147)
T2 construct: whole, on cells; Membranes of BHK tk'ts 13 cells transiently transfected with the rat calcitonin receptor and rat RAMP 3; also called rAmylin-R; rat amylin 3(a) receptor
T2 sequence (looked up) 1: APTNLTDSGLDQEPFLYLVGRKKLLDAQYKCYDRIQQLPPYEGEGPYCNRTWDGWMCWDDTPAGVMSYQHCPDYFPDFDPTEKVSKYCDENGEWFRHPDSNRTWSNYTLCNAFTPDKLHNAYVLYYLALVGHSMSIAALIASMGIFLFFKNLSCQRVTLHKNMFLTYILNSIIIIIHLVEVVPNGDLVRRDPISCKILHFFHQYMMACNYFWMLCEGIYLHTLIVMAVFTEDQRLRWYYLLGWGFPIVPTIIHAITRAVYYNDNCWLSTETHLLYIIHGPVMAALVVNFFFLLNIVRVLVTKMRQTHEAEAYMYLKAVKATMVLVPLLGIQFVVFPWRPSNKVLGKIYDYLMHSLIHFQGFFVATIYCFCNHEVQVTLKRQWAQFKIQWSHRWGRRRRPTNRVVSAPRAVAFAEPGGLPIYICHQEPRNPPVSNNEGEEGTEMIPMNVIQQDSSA
T2 sequence (looked up) 2: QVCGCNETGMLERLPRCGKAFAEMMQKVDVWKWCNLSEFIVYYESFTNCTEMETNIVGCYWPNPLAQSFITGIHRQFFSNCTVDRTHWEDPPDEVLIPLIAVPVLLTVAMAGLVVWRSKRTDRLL

T3: human calcitonin receptor (human, UniProt P30988 25-474)
T3 construct: whole, on cells; Membranes of a BHK tk'ts 13 cell line stably transfected with the human calcitonin receptor; also called hCTR; hCT
T3 sequence (looked up): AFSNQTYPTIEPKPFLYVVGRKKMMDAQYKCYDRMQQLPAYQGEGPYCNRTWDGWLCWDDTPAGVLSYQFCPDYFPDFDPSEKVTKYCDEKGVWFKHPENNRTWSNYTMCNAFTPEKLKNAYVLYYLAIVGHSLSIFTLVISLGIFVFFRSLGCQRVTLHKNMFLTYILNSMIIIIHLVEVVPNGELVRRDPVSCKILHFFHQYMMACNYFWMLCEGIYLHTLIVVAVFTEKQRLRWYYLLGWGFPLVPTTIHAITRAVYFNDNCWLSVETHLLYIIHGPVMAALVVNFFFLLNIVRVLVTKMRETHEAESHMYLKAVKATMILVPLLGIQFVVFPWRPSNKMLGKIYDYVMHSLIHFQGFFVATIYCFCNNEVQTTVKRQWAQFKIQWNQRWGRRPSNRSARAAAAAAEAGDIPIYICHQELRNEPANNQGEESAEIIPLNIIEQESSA

T4: rat calcitonin receptor (rat, UniProt P32214 25-516)
T4 construct: whole, on cells; Cell membranes of transiently transfected BHK tk'ts 13 cells (Assay VIII); also called rCTR; rCT
T4 sequence (looked up): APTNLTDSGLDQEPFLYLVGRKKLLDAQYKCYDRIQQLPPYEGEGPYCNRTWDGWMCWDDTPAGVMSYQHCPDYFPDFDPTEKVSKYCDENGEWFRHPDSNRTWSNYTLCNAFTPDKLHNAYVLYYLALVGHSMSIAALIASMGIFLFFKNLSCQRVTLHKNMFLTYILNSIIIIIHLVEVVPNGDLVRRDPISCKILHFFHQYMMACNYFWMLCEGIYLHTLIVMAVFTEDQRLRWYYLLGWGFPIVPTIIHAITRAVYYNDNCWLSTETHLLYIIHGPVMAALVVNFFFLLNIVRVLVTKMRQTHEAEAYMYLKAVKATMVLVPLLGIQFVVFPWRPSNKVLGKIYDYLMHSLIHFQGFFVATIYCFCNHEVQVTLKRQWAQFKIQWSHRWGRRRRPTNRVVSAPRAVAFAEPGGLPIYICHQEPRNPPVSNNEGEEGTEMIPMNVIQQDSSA

T5: rat amylin receptor (rat calcitonin receptor + rat RAMP 3) (rat, UniProt P32214 25-516; Q9JJ73 23-147)
T5 construct: whole, on cells; Cell membranes of transiently transfected BHK tk'ts 13 cells (Assay VI); also called rAmylin-R; rat amylin 3(a) receptor
T5 sequence (looked up) 1: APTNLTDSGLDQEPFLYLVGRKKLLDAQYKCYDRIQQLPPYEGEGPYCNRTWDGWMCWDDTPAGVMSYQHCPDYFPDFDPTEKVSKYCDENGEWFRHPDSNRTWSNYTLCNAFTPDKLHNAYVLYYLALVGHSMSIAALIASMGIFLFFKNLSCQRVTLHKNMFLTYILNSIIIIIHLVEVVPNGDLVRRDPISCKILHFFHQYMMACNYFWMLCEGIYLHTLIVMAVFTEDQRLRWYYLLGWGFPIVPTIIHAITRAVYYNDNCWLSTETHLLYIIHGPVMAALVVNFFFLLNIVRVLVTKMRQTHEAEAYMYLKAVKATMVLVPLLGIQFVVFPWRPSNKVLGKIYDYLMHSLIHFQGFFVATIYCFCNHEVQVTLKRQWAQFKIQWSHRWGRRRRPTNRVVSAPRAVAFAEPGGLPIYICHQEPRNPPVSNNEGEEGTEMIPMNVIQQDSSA
T5 sequence (looked up) 2: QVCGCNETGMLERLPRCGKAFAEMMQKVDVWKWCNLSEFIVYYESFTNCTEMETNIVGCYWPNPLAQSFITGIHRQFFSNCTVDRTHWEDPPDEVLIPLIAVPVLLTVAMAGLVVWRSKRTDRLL


Columns and labels:
rat calcitonin receptor [1] = target: T1, rat calcitonin receptor; test: SPA competition vs 125I-calcitonin, membranes with rat CTR (Assay VIII)
[2] = target: T2, rat amylin receptor (rat calcitonin …); test: SPA competition vs 125I-rat amylin, membranes with rat CTR + rat RAMP3 (Assay VI)
rat calcitonin receptor [3] = target: T1, rat calcitonin receptor; test: IC50 at rCTR divided by IC50 at rAmylin-R (reference)
[4] = target: T3, human calcitonin receptor; test: IC50 at hCTR divided by IC50 at hAmylin-R (reference)
Summary of the method: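 Scintillation proximity competition binding on cell membranes at 35 ng/μL with SPA beads, in 50 mM Hepes pH 7.4, 1 mM CaCl2, 5 mM MgCl₂, 0.1% OA, 0.02% Tween20. Incubated 120 min at 25° C with shaking. IC₅₀ from one-site competition fit.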

rat calcitonin receptor [5] = target: T4, rat calcitonin receptor; test: ratio IC50 rat calcitonin receptor / IC50 rat amylin receptor
rat calcitonin receptor [6] = target: T4, rat calcitonin receptor; test: SPA competition vs 125I-calcitonin, membranes with rat CTR (Assay VIII)
[7] = target: T5, rat amylin receptor (rat calcitonin …); test: SPA competition vs 125I-rat amylin, membranes with rat CTR + rat RAMP3 (Assay VI)

| Binder | IC50 (rat calcitonin receptor [1]) [nM] | IC50 [2] [nM] | Ratio rCT/rAmylin binding (rat calcitonin receptor [3]) | Ratio hCT/hAmylin binding [4] | Ratio rCT/rAmylin binding (rat calcitonin receptor [5]) | IC50 (rat calcitonin receptor [6]) [nM] | IC50 [7] [nM] |
| --- | --- | --- | --- | --- | --- | --- | --- |
| K([γGlu-C20 diacid])CNTATCATQRLANFLRHSSPNFGAIPSSTNVGSNTY-NH2 (disulfide 2-7; N-terminus assumed; SMILES CC[C@H](C)[C@H](NC(=O)[C@H](C)NC(=O)CNC(=O)[C@H](Cc1ccccc1)NC(=O)[C@H](CC(N)=O)NC(=O)[C@@H]1CCCN1C(=O)[C@H](CO)NC(=O)[C@H](CO)NC(=O)[C@H](Cc1c[nH]cn1)NC(=O)[C@H](CCCNC(=N)N)NC(=O)[C@H](CC(C)C)NC(=O)[C@H](Cc1ccccc1)NC(=O)[C@H](CC(N)=O)NC(=O)[C@H](C)NC(=O)[C@H](CC(C)C)NC(=O)[C@H](CCCNC(=N)N)NC(=O)[C@H](CCC(N)=O)NC(=O)[C@@H](NC(=O)[C@H](C)NC(=O)[C@@H]1CSSC[C@H](NC(=O)[C@@H](N)CCCCNC(=O)CC[C@H](NC(=O)CCCCCCCCCCCCCCCCCCC(=O)O)C(=O)O)C(=O)N[C@@H](CC(N)=O)C(=O)N[C@@H]([C@@H](C)O)C(=O)N[C@@H](C)C(=O)N[C@@H]([C@@H](C)O)C(=O)N1)[C@@H](C)O)C(=O)N1CCC[C@H]1C(=O)N[C@@H](CO)C(=O)N[C@@H](CO)C(=O)N[C@H](C(=O)N[C@@H](CC(N)=O)C(=O)N[C@H](C(=O)NCC(=O)N[C@@H](CO)C(=O)N[C@@H](CC(N)=O)C(=O)N[C@H](C(=O)N[C@@H](Cc1ccc(O)cc1)C(N)=O)[C@@H](C)O)C(C)C)[C@@H](C)O, modifications are with respect to human amylin; also called compound 48) [N^ε1-[(4S)-4-carboxy-4-(19-carboxynonadecanoylamino)butanoyl]-[Arg17,Pro21,Pro27]-h-amylin] | 112 | 0.558 | 201 | 69.7 | – | – | – |
| K([AEEA-γGlu-C20 diacid])CNTATCATQRLANFLRHSSPNFGAIPPSTPVGSNTY-NH2 (disulfide 2-7, Acylated analogue of human amylin; also called compound 53) | – | – | – | – | 130 | 10.9 | 0.084 |
| K([AEEA-γGlu-C20 diacid])CNTATCATQRLANFLRHSSPNFGAIPPSTNVGPNTY-NH2 (disulfide 2-7; N-terminus assumed; SMILES CC[C@H](C)[C@H](NC(=O)[C@H](C)NC(=O)CNC(=O)[C@H](Cc1ccccc1)NC(=O)[C@H](CC(N)=O)NC(=O)[C@@H]1CCCN1C(=O)[C@H](CO)NC(=O)[C@H](CO)NC(=O)[C@H](Cc1c[nH]cn1)NC(=O)[C@H](CCCNC(=N)N)NC(=O)[C@H](CC(C)C)NC(=O)[C@H](Cc1ccccc1)NC(=O)[C@H](CC(N)=O)NC(=O)[C@H](C)NC(=O)[C@H](CC(C)C)NC(=O)[C@H](CCCNC(=N)N)NC(=O)[C@H](CCC(N)=O)NC(=O)[C@@H](NC(=O)[C@H](C)NC(=O)[C@@H]1CSSC[C@H](NC(=O)[C@@H](N)CCCCNC(=O)COCCOCCNC(=O)CC[C@H](NC(=O)CCCCCCCCCCCCCCCCCCC(=O)O)C(=O)O)C(=O)N[C@@H](CC(N)=O)C(=O)N[C@@H]([C@@H](C)O)C(=O)N[C@@H](C)C(=O)N[C@@H]([C@@H](C)O)C(=O)N1)[C@@H](C)O)C(=O)N1CCC[C@H]1C(=O)N1CCC[C@H]1C(=O)N[C@@H](CO)C(=O)N[C@H](C(=O)N[C@@H](CC(N)=O)C(=O)N[C@H](C(=O)NCC(=O)N1CCC[C@H]1C(=O)N[C@@H](CC(N)=O)C(=O)N[C@H](C(=O)N[C@@H](Cc1ccc(O)cc1)C(N)=O)[C@@H](C)O)C(C)C)[C@@H](C)O, Acylated analogue of human amylin; also called compound 55) | – | – | – | – | 77.2 | 6.25 | 0.081 |
